Assay results taken from publication PMC6793842 (PLoS Biology, 2019).
Substitutions are numbered along the chain they refer to.

T1: P. falciparum RH5 (reticulocyte-binding protein homologue 5) (P. falciparum (3D7), UniProt Q8IFM5 25-526)
T1 sequence: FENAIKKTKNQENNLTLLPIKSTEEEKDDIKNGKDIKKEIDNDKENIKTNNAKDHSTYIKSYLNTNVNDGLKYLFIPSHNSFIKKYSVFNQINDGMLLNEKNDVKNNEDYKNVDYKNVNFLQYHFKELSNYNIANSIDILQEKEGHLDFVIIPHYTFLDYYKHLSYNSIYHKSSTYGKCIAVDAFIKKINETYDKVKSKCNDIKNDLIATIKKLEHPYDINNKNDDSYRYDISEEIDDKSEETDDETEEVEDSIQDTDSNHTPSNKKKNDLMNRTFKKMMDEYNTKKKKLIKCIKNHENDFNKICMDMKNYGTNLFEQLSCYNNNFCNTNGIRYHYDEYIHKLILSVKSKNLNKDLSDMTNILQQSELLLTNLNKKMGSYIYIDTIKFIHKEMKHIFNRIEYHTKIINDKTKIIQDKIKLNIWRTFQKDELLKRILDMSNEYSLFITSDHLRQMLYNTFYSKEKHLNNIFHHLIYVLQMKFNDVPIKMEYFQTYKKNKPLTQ

T2: P. falciparum P113, biotinylated bait (P. falciparum, UniProt Q8ILP3 23-945, biotin (enzymatic monobiotinylation; site not stated))
T2 construct: source: HEK293E, transient transfection, secreted; enzymatically monobiotinylated bait
T2 sequence: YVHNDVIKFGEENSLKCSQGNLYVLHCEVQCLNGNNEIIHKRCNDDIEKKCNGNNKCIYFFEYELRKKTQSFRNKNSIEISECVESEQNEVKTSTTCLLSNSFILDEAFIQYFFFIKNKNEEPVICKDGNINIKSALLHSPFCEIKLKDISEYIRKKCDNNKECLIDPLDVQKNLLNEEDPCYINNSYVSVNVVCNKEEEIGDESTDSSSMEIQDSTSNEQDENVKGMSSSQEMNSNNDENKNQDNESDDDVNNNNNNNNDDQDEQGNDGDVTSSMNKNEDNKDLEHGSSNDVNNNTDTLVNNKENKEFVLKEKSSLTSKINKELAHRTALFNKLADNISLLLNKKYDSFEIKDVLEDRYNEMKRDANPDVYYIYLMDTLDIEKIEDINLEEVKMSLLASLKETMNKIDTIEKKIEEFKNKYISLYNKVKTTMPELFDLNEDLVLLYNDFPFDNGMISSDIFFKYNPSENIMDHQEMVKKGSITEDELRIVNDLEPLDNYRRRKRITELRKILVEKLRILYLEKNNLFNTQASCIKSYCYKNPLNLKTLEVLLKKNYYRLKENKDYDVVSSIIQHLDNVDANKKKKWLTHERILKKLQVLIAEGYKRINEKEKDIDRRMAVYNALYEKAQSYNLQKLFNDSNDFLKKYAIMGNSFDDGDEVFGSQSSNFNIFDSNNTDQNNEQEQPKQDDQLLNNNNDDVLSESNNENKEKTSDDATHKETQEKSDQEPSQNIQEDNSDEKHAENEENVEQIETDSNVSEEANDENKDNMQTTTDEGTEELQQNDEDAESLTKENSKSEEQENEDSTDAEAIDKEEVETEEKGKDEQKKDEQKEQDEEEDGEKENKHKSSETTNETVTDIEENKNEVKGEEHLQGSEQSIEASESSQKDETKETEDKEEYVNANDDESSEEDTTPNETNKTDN

B1: chimpanzee basigin, entire ectodomain (receptor)
chain: ASGAAGTVFTTVEDLGSKILLTCYMNDSATEVTGHRWLKGGVVLEEDALPGQKTEFKVDSDDQWGEYSCVFLPEPMGTANIQLHGPPRVKAVKSSEHINEGETAVLVCKSESVPPVTDWAWYKITDSGDKALMNGSESRFFVSSLQGRSELHIENLNMEADPGQYRCNGNSSEGSDQAVITLRVRSHLA
modifications: enzymatically monobiotinylated
B2: human basigin, entire ectodomain (receptor)
chain: EPGTVFTTVEDLGSKILLTCSLNDSATEVTGHRWLKGGVVLKEDALPGQKTEFKVDSDDQWGEYSCVFLPEPMGTANIQLHGPPRVKAVKSSEHINEGETAMLVCKSESVPPVTDWAWYKITDSEDKALMNGSESRFFVSSSQGRSELHIENLNMEADPGQYRCNGTSSKGSDQAIITLRVRSHLAAL
modifications: enzymatically monobiotinylated
notes: also called HsBSG; BSG; source: HEK293E, transient transfection, secreted, enzymatically monobiotinylated
B3: introgressed ancestral RH5 (reticulocyte-binding protein homologue 5) (ligand)
chain: T1 sequence with H124D, S173Y, Y176H, C179Y, T192R, K195Q
B4: P. falciparum RH5 (reticulocyte-binding protein homologue 5) (ligand)
chain: T1 sequence

How the values were obtained:
Experiment in all cases: SPR
Conditions in all cases: both partners purified
P. gaboni RH5 = P. gaboni RH5 (P. gaboni)
P. reichenowi RH5 = P. reichenowi RH5 (P. reichenowi, UniProt B4X6H6 1-535)
[1] = target: T1, P. falciparum RH5 (reticulocyte-binding …)
[2] = target: B2
[3] = target: T3, gorilla basigin, entire ectodomain (gorilla, enzymatically monobiotinylated)
T3 construct: also called gorilla BSG; source: HEK293E, transient transfection, secreted, enzymatically monobiotinylated

[4] = target: T2, P. falciparum P113, biotinylated bait

Question: How did the Kd (P. gaboni RH5) turn out when B1 was run?
Answer: The Kd was 2900 ± 100 nM.

Question: What about the Kd (P. reichenowi RH5) of the same binder?
Answer: Its Kd is 4300 ± 500 nM.

Question: For B2, which Kd [1] is on record?
Answer: Its Kd is 1500 ± 200 nM.

Question: Which Kd [2] does the source give for B3 here?
Answer: The Kd was 2300 ± 100 nM.

Question: What about the Kd [3] of the same binder?
Answer: The Kd was 3000 ± 300 nM.

Question: Does B4 bind [4]?
Answer: Result: binds
